Consider five molecules from US7662583B2, “Bioreactor containing cells expressing glycosyltransferase nucleic acids isolatable from Arabidopsis” (The University of York, priority 2003, dated 2010).

The nature of the data set: UGT enzyme reaction with quercetin (recombinant UGTs, HPLC). Format: biochemical, Arabidopsis. The note with it: 0.5 mM quercetin, 5 mM UDP-glucose, 30° C.; for Specific activity (nkat/mg protein) 3-O-glc: quercetin glucosylated at 3-OH; for Specific activity (nkat/mg protein) 3′-O-glc: quercetin glucosylated at 3′-OH; for Specific activity (nkat/mg protein) 4′-O-glc: quercetin glucosylated at 4′-OH; for Specific activity (nkat/mg protein) 7-O-glc: quercetin glucosylated at 7-OH. As for the experimental part:
The assay mix (200 μl) contained 2 μg of recombinant protein, 100 mM Tris-HCl, pH 7.0, 5 mM UDP-glucose 1.4 mM 2-mercaptoethanol, and 0.5 mM of quercetin. The reaction was carried out at 30° C. for 1 h, and was quick-frozen and stored at −20° C. prior to the reverse-phase HPLC analysis
Reverse-phase HPLC (SpectraSYSTEM HPLC systems and UV6000LP Photodiode Array Detector, ThermoQuest) analysis was carried using a Columbus 5μ C18 column (250×4.60 mm, PHENOMENEX). Quercetin glucosides were separated from the aglycone by a linear gradient of 10-75% acetonitrile in H2O (all solution contained 0.1% trifluoroacetic acid) at 1 ml/mm over 20 mm and monitored at 370 nm. Cytokinin glucosides were separated from their aglycone by a liner gradient of 10-100% methanol in H2O (for N6-isopentenyladenine (iP), N6-benzyladenine and kinetin) or 10-60% methanol in H2O (for trans-zeatin and dihydrozeatin) at 1 ml/min over 20 mm. All solution contained 0.25% acetic acid and 0.04% triethylamine, trifluoroacetic acid. The separation was monitored at 206 nm and 252 nm. The identity of the products was confirmed by comparison with authentic gluco sides.
The activity of Arabidopsis recombinant UGTs towards quercetin was determined using the platform developed previously^15.

B1: UGT71C3: Arabidopsis recombinant glycosyltransferase, FIG. 2 (protein, listed as Arabidopsis thaliana)
chain: MKAEAEIIFVTYPSPGHLLVSIEFAKSLIKRDDRIHTITILYWALPLAPQAHLFAKSLVASQPRIRLLALPDVQNPPPLELFFKAPEAYILESTKKTVPLVRDALSTLVSSRKESGSVRVVGLVIDFFCVPMIEVANELNLPSYIFLTCNAGFLSMMKYLPERHRITTSELDLSSGNVEHPIPGYVCSVPTKVLPPGLFVRESYEAWVEIAEKFPGAKGILVNSVTCLEQNAFDYFARLDENYPPVYPVGPVLSLKDRPSPNLDASDRDRIMRWLEDQPESSIVYICFGSLGIIGKLQIEEIAEALELTGHRFLWSIRTNPTEKASPYDLLPEGFLDRTASKGLVCDWAPQVEVLAHKALGGFVSHCGWNSVLESLWFGVPIATWPMYAEQQLNAFSMVKELGLAVELRLDYVSAYGEIVKAEEIAGAIRSLMDGEDTPRKRVKEMAEAARNALMDGGSSFVAVKRFLDELIGGDV
Consider B1, for which the “Specific activity (nkat/mg protein) 3-O-glc” value is 0.11 nkat/mg protein; the “Specific activity (nkat/mg protein) 3′-O-glc” value is “— (Activity lower than 0.02 nkat/mg protein has been considered as trace activity and is not shown in the Table.)”; the “Specific activity (nkat/mg protein) 4′-O-glc” value was “— (Activity lower than 0.02 nkat/mg protein has been considered as trace activity and is not shown in the Table.)”; the “Specific activity (nkat/mg protein) 7-O-glc” value is “— (Activity lower than 0.02 nkat/mg protein has been considered as trace activity and is not shown in the Table.)”.

B2: UGT73B4: Arabidopsis recombinant glycosyltransferase (protein, UniProt Q7Y232 1-484, looked up)
UDP-glycosyltransferase 73B4: MNREQIHILFFPFMAHGHMIPLLDMAKLFARRGAKSTLLTTPINAKILEKPIEAFKVQNPDLEIGIKILNFPCVELGLPEGCENRDFINSYQKSDSFDLFLKFLFSTKYMKQQLESFIETTKPSALVADMFFPWATESAEKIGVPRLVFHGTSSFALCCSYNMRIHKPHKKVASSSTPFVIPGLPGDIVITEDQANVTNEETPFGKFWKEVRESETSSFGVLVNSFYELESSYADFYRSFVAKKAWHIGPLSLSNRGIAEKAGRGKKANIDEQECLKWLDSKTPGSVVYLSFGSGTGLPNEQLLEIAFGLEGSGQNFIWVVSKNENQVGTGENEDWLPKGFEERNKGKGLIIRGWAPQVLILDHKAIGGFVTHCGWNSTLEGIAAGLPMVTWPMGAEQFYNEKLLTKVLRIGVNVGATELVKKGKLISRAQVEKAVREVIGGEKAEERRLRAKELGEMAKAAVEEGGSSYNDVNKFMEELNGRK
As for B2, the “Specific activity (nkat/mg protein) 3-O-glc” value was determined as 12.14 nkat/mg protein; the “Specific activity (nkat/mg protein) 3′-O-glc” value is “— (Activity lower than 0.02 nkat/mg protein has been considered as trace activity and is not shown in the Table.)”; the “Specific activity (nkat/mg protein) 4′-O-glc” value was “— (Activity lower than 0.02 nkat/mg protein has been considered as trace activity and is not shown in the Table.)”; the “Specific activity (nkat/mg protein) 7-O-glc” value came to 0.18 nkat/mg protein.

B3: UGT76D1: Arabidopsis recombinant glycosyltransferase, FIG. 7 (protein, listed as Arabidopsis thaliana)
chain: MAEIRQRRVLMVPAPFQGHLPSMMNLASYLSSQGFSITIVRNEFNFKDISHNFPGIKFFTIKDGLSESDVKSLGLLEFVLELNSVCEPLLKEFLTNHDDVVDFIIYDEFVYFPRRVAEDMNLPKMVFSPSSAATSISRCVLMENQSNGLLPPQDARSQLEETVPEFHPFRFKDLPFTAYGSMERLMILYENVSNRASSSGIIHNSSDCLENSFITTAQEKWGVPVYPVGPLHMTNSAMSCPSLFEEERNCLEWLEKQETSSVIYISMGSLAMTQDIEAVEMAMGFVQSNQPFLWVIRPGSINGQESLDFLPEQFNQTVTDGRGFVVKWAPQKEVLRHRAVGGFWNHGGWNSCLESISSGVPMICRPYSGDQRVNTRLMSHVWQTAYEIEGELERGAVEMAVRRLIVDQEGQEMRMRATILKEEVEASVTTEGSSHNSLNNLVHAIMMQIDEQ
With B3, the “Specific activity (nkat/mg protein) 3-O-glc” value is “— (Activity lower than 0.02 nkat/mg protein has been considered as trace activity and is not shown in the Table.)”; the “Specific activity (nkat/mg protein) 3′-O-glc” value was “— (Activity lower than 0.02 nkat/mg protein has been considered as trace activity and is not shown in the Table.)”; the “Specific activity (nkat/mg protein) 4′-O-glc” value is “— (Activity lower than 0.02 nkat/mg protein has been considered as trace activity and is not shown in the Table.)”; the “Specific activity (nkat/mg protein) 7-O-glc” value is 0.24 nkat/mg protein.

B4: UGT73B1: Arabidopsis recombinant glycosyltransferase (protein, UniProt Q8VZE9 1-488, looked up)
UDP-glycosyltransferase 73B1: MGTPVEVSKLHFLLFPFMAHGHMIPTLDMAKLFATKGAKSTILTTPLNAKLFFEKPIKSFNQDNPGLEDITIQILNFPCTELGLPDGCENTDFIFSTPDLNVGDLSQKFLLAMKYFEEPLEELLVTMRPDCLVGNMFFPWSTKVAEKFGVPRLVFHGTGYFSLCASHCIRLPKNVATSSEPFVIPDLPGDILITEEQVMETEEESVMGRFMKAIRDSERDSFGVLVNSFYELEQAYSDYFKSFVAKRAWHIGPLSLGNRKFEEKAERGKKASIDEHECLKWLDSKKCDSVIYMAFGTMSSFKNEQLIEIAAGLDMSGHDFVWVVNRKGSQVEKEDWLPEGFEEKTKGKGLIIRGWAPQVLILEHKAIGGFLTHCGWNSLLEGVAAGLPMVTWPVGAEQFYNEKLVTQVLKTGVSVGVKKMMQVVGDFISREKVEGAVREVMVGEERRKRAKELAEMAKNAVKEGGSSDLEVDRLMEELTLVKLQKEKV
For B4, the “Specific activity (nkat/mg protein) 3-O-glc” value is recorded as 0.32 nkat/mg protein; the “Specific activity (nkat/mg protein) 3′-O-glc” value is “— (Activity lower than 0.02 nkat/mg protein has been considered as trace activity and is not shown in the Table.)”; the “Specific activity (nkat/mg protein) 4′-O-glc” value is “— (Activity lower than 0.02 nkat/mg protein has been considered as trace activity and is not shown in the Table.)”; the “Specific activity (nkat/mg protein) 7-O-glc” value amounted to 0.14 nkat/mg protein.

B5: UGT71C4: Arabidopsis recombinant glycosyltransferase, FIG. 3 (protein, listed as Arabidopsis thaliana)
chain: MVKETELIFIPVPSTGHILVHIEFAKRLINLDHRIHTITILNLSSPSSPHASVFARSLIASQPKIRLHDLPPIQDPPPFDLYQRAPEAYIVKLIKKNTPLIKDAVSSIVASRRGGSDSVQVAGLVLDLFCNSLVKDVGNELNLPSYIYLTCNARYLGMMKYIPDRHRKIASEFDLSSGDEELPVPGFINAIPTKFMPPGLFNKEAYEAYVELAPRFADAKGILVNSFTELEPHPFDYFSHLEKFPPVYPVGPILSLKDRASPNEEAVDRDQIVGWLDDQPESSVVFLCFGSRGSVDEPQVKEIARALELVGCRFLWSIRTSGDVETNPNDVLPEGFMGRVAGRGLVCGWAPQVEVLAHKAIGGFVSHCGWNSTLESLWFGVPVATWPMYAEQQLNAFTLVKELGLAVDLRMDYVSSRGGLVTCDEIARAVRSLMDGGDEKRKKVKEMADAARKALMDGGSSSLATARFIAELFEDGSSC
On to B5, for which the “Specific activity (nkat/mg protein) 3-O-glc” value was 1.33 nkat/mg protein; the “Specific activity (nkat/mg protein) 3′-O-glc” value was “— (Activity lower than 0.02 nkat/mg protein has been considered as trace activity and is not shown in the Table.)”; the “Specific activity (nkat/mg protein) 4′-O-glc” value was “— (Activity lower than 0.02 nkat/mg protein has been considered as trace activity and is not shown in the Table.)”; the “Specific activity (nkat/mg protein) 7-O-glc” value was found to be 0.63 nkat/mg protein.
